Laboratory results as given in PMC8156467, “Disruption of YY1-EZH2 Interaction Using Synthetic Peptides Inhibits Breast Cancer Development” (Cancers, 2021).

Key:
[1] = target: enhancer of zeste homolog 2 (EZH2), endogenous (human (endogenous in MDA-MB-231)) (UniProt Q15910)
[2] = target: Yin Yang 1 (YY1), endogenous (human (endogenous in MDA-MB-231)) (UniProt P25490)
Sequence of Yin Yang 1 (YY1), endogenous (human (endogenous in MDA-MB-231)) (P25490 whole entry): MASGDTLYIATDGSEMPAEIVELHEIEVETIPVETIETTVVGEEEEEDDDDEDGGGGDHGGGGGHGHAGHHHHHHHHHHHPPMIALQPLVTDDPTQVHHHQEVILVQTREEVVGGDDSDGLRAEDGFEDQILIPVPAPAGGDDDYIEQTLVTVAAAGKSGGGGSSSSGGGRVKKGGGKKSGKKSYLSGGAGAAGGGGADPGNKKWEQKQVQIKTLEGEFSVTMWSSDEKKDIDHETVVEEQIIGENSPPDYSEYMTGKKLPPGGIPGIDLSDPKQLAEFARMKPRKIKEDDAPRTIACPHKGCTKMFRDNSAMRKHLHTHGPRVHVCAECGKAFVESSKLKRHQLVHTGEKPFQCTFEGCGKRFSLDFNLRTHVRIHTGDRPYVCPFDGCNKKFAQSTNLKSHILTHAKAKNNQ

Sequence of synthetic FITC-TAT-3×Glycine-OPB peptide (P25490 whole entry): as above
Sequence of enhancer of zeste homolog 2 (EZH2), endogenous (human (endogenous in MDA-MB-231)) (Q15910 whole entry): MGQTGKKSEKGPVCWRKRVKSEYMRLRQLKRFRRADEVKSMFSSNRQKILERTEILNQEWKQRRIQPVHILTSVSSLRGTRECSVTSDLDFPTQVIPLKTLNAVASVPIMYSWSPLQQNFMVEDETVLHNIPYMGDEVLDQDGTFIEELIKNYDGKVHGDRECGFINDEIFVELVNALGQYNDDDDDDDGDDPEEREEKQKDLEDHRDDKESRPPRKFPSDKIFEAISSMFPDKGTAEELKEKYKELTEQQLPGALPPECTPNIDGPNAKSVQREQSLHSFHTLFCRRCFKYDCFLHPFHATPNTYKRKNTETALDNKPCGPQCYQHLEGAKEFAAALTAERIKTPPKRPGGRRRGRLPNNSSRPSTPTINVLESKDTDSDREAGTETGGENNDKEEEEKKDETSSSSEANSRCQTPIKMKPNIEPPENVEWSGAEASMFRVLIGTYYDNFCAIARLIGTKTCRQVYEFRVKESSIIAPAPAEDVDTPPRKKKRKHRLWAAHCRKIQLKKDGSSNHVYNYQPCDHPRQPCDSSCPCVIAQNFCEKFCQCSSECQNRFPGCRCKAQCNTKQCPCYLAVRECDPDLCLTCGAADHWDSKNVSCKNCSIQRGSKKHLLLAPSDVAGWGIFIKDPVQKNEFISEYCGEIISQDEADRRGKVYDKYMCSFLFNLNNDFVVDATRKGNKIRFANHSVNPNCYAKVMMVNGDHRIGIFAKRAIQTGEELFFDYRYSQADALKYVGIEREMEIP

| Substance | IC50 of cell viability (WST-1, 48 h) in MCF-7, MDA-MB-231 and MDA-MB-453 breast cancer cells; the peptide blocks YY1-EZH2 (m1 with m2) [1] | IC50 of cell viability (WST-1, 48 h) in MCF-7, MDA-MB-231 and MDA-MB-453 breast cancer cells; the peptide blocks YY1-EZH2 (m1 with m2) [2] |
| --- | --- | --- |
| synthetic FITC-TAT-3×Glycine-OPB peptide (from UniProt P25490 201-226) | 20 µM | – |
| synthetic FITC-TAT-3×Glycine-YPB peptide (from UniProt Q15910-2 493-519) | – | 20 µM |
